From the supplement of paper PMC9170038

Tested on: MS2 coat protein
Experiment: apparent KD of MS2 coat protein; designed switch direction (-1 OFF switch, 1 ON switch): -1; higher = weaker reporter binding
Summary of the method: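 RNA switches sharing common flanks were transcribed by stalled E. coli RNA polymerase on Illumina chips. A doubling series of SNAP-549-labelled MS2 coat protein, from 0.7 or 1.5 nM to 3 µM, was applied in Tris-HCl pH 7.5 buffer with KCl, MgCl2, BSA, DTT, tRNA and Tween-20. Each step lasted 0.8–1.5 h at the bottom of the series and 10–20 min at the top. Normalised cluster fluorescence was curve-fitted, giving apparent KD as the per-design median over clusters.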

[1] = input ligand: microRNA oligo, concentration not stated

Sequence | apparent KD of MS2 coat protein (input ligand: FMN 200 uM) [nM] | apparent KD of MS2 coat protein [1] [nM] | apparent KD of MS2 coat protein (input ligand: none) [nM]
ACAUGAGGAUCACCCAUGUGACAAUAAUGGCUGAUACAGAGACAGGAUAUACGUGAAUAUCUAACGUAGAAGGGUCAUGACUGG [Deportation 70 - Jieux - Exclusion NG 3] (Eterna round: R96, puzzle: Exclusion NG 3) | 30.5 | 35.8 | 41.9
ACAUGAGGAUCACCCAUGUGACCACGAUGGCUGAUGUAAAGACAGGAUAUGUGUGAAUAUCUAUCACAGAAGGGUCUUGACUGG [Deportation 55 - Jieux - Exclusion NG 3] (Eterna round: R96, puzzle: Exclusion NG 3) | 24.1 | 22 | 30.6
ACAUGAGGAUCACCCAUGUGACCAUGAUGGCUGAUGUAGAGCUAGGAUAUGAGUGAAUAUCUAUCUCAGAAGGAGCUUGACUGG [Deportation 48 - Jieux - Exclusion NG 3] (Eterna round: R96, puzzle: Exclusion NG 3) | 16.7 | 15.4 | 21.3
ACAUGAGGAUCACCCAUGUUUUUCGGGUACUCUUUUUACAGCAAGGAUAUGCAUUAUUUAUGUACGCAGAAGGUGCUUUACGUC [JR_ExcNG3_Sub065] (Eterna round: R96, puzzle: Exclusion NG 3) |  | 82.9 | 
ACAUGAUCAGGAUAUACAUGAGGAUCACCCAUGUAAAUCAAAAAAAAACUUUCUUUAUGUAGAAGGGAUCUUGU [EX3 270: Random 6] (Eterna round: R96, puzzle: Exclusion 3) | 15.2 | 13.6 | 15.3
ACAUGAUGCUUAGGAUAUGUUCUUACGCCAUGAAUAGAAGGGAGCGGACAGAAGUGACCUGACAUGAGGAUCACCCAUGUCUAA [Isusus] (Eterna round: R96, puzzle: Exclusion NG 1) | 84.4 | 48 | 80.3
ACAUGUAUUGCAGGAUAUGGGACACAUGAGGAUCACCCAUGUGACUACAUGUAAUGCCACGGGUCUCAGAAGGGUAUGUACAUG [Ex NG2 #42] (Eterna round: R96, puzzle: Exclusion NG 2) | 81.5 | 22.9 | 31.3
ACAUGUCAUCGAGGAUAUUGGACACAUGAGGAUCACCCAUGUACUCGGUUGCUCUAGCAUGAGUUCGAGAAGGCGAUGUACAUU [Ex NG2 #80] (Eterna round: R96, puzzle: Exclusion NG 2) | 159 | 229 | 387
ACAUGUGUUGUAGGAUAUAGGAUACAUGAGGAUCACCCAUGUGGAUUCAUGUCAAAGGAAGCGUCCUAGAAGGACGGCAACAUG [Ex NG2 #24] (Eterna round: R96, puzzle: Exclusion NG 2) | 46.6 | 38.3 | 49.6
ACAUGUGUUGUAGGAUAUAGGAUACAUGAGGAUCACCCAUGUGGAUUCAUGUCUAAGGAAGCGUCCUAGAAGGACGACAACAUG [Ex NG2 #25] (Eterna round: R96, puzzle: Exclusion NG 2) | 83 | 21.6 | 27.6
ACAUGUUAUCUAGGAUAUUGGACACAUGAGGAUCACCCAUGUACCCGGAGGCUUUACUAUGAGUUCGAGAAGGAGAUGUACAUG [Ex NG2 #71] (Eterna round: R96, puzzle: Exclusion NG 2) | 97.9 | 67.6 | 73.1
ACAUUACAUGAGGAUCACCCAUGUGAGGAUAUGGAGCGGUAGUGUCCUGUCGCGUACACCAGAAGGCGCGGGUG [1st #48] (Eterna round: R97, puzzle: Exclusion 1) | 282 |  | 90.6
ACAUUGCGAGGAUAUACAUGAGGAUCACCCAUGUGGUGGCAGUUACGGUAGGACUAGUGUAGAAGGUGCCAUGG [EX3 #23] (Eterna round: R97, puzzle: Exclusion 3) | 441 |  | 401
ACAUUUUAUCCAUGAUAUCACAUGAGGAUCACCCAUGUUAAGGCGAUUUUGAUUUGUAAGCUUUGUGCUCGACUUAU [JR_STOV1_Sub054] (Eterna round: R97, puzzle: Sensor, turn-off variant 1) | 35.6 |  | 42.1
ACCAAUGCAGGAUAUACAUGAGGAUCACCCAUGUAUAACCUACAUAGAUGAUCAUCAUGUAGAAGGGCAAUGGA [EX3 229: Super Stable 29] (Eterna round: R96, puzzle: Exclusion 3) | 12.2 | 11.1 | 14.6
ACCGCAAGAGGAUAUACAUGAGGAUCACCCAUGUCGACCGCGAGAGACGUGGACCGGCGUAGAAGGCUUGCCAC [Eternabot (Original) Solution 50] (Eterna round: R97, puzzle: Exclusion 3) | 355 |  | 56.8
ACCUCACAUGAGGAUCACCCAUGUCAGGAUAUCCAACAUGCUCCCAGGACCAAGCAUAGGAGAAGGGACAUGCG (Eterna round: R97, puzzle: Exclusion 1) | 76.5 |  | 27.2
ACCUCACAUGAGGAUCACCCAUGUCAGGAUAUCUAAUAUUGUAGCGUUCCCGACGCUAAGAGAAGGGACAUUAA [EX1 #31] (Eterna round: R97, puzzle: Exclusion 1) | 19.5 |  | 16.5
ACCUCACAUGAGGAUCACCCAUGUCAGGAUAUCUGAUGUAGUCCCGUUCCGGACGCUGAGAGAAGGGACGUUGA [EX1 #39] (Eterna round: R97, puzzle: Exclusion 1) | 38.9 |  | 51.6
ACCUUACUGGUCAGGAUAUACAGUCUUUGGUGUGUGUAGAAGGGACAUGAGGAUCACCCAUGUAGGUUGCUUUA [alecazam62] (Eterna round: R97, puzzle: Brourd's mod of Exclusion 4) | 220 |  | 141
ACCUUACUUGAGGAUCACCCAAGUCAGGAUAUACACCAGAAUAAAUCCCAGCCCUGGCGUAGAAGGGACGGGUG [Soesma] (Eterna round: R97, puzzle: Exclusion 1) | 23.9 |  | 21.8
ACGACGUAAGGAUAUACAUGAGGAUCACCCAUGUGGAGAUCCAGAGGAGAGACCUGACGUAGAAGGUGCGUCGA [Eternabot (L2) Solution 87] (Eterna round: R97, puzzle: Exclusion 3) | 286 |  | 1400
ACGAUGACAGAAAGAUGUCAAAAGACAUGAGGAUCACCCAUGUAGGAUAUGGCUACGAAAAGUAGUCAGAAGGACAUGUCAUCA [Omei Exc(NG) 3 Av1] (Eterna round: R96, puzzle: Exclusion NG 3) | 16.2 | 10.6 | 13.8
ACGAUGACCGAAAAGUGUUAACUGACAUGAGGAUCACCCAUGUAGGAUAUGGCUACGAAAAGUAGUCAGAAGGACAUGUCAUCA [Omei Exc(NG) 3 Av7] (Eterna round: R96, puzzle: Exclusion NG 3) | 17.8 | 13.1 | 17.5
ACGCCAGGAGGAUAUGCAAUAAGUAACAUGAGGAUCACCCAUGUUCGGGCGAUCCUCGUGGCAGAAGGCCUAGCCG [Attira] (Eterna round: R97, puzzle: Exclusion 5) | 95.5 |  | 24.4
ACGCCCUGAGGAUAUCUUAUCCCGUACAUGAGGAUCACCCAUGUUUUCCUCCGGGCUUCGAGAGAAGGCAGGCCCA [Armus14] (Eterna round: R97, puzzle: Exclusion 5) | 88 |  | 39
ACGCGACAUGAGGAUCACCCAUGUGAGGAUAUGGCCUGUUUGUCGUGUGCUGGCUCUGUCAGAAGGCGCGUUGG [salish99_ex1_r4_042] (Eterna round: R97, puzzle: Exclusion 1) | 255 |  | 128
ACGCUCCGUGUAGGAUAUCGCCGUACCACUCGGCGAGAAGGACAUGAGGAUCACCCAUGUAUGUUAUUAUCACGUGUGGCGCGC [Design 51] (Eterna round: R96, puzzle: Exclusion NG 1) | 25.5 | 15.2 | 19.9
ACGGUUCUCCUCAGCUACAUGAGGAUCACCCAUGUGACUGAGCAGGAUAUACAUAAGUGCGAAAAGUAGAAGGGCUCGGCGCAC [Xeora] (Eterna round: R96, puzzle: Exclusion NG 3) | 12.2 | 8.75 | 12.7
ACGUACCUAGGAUAUACAUGGCCACAUGAUGCCAAGGAACAACUUGAGGAUCACCCAAGUAGAAGGAGGAAAAG [Riberace] (Eterna round: R97, puzzle: Exclusion 2) | 78.1 |  | 73.4
